Biological target: human integrin αvβ3 (R&D Systems, 3050-AV-050) (human, UniProt P06756 31-1048; P05106 27-718)
Test: SPR

B1: GFP-tagged full-length recombinant human D3 (1-304 aa), D3^FL (enzyme)
chain: MPRQATSRLVVGEGEGSQGASGPAATMLRSLLLHSLRLCAQTASCLVLFPRFLGTAFMLWLLDFLCIRKHFLGRRRRGQPEPEVELNSEGEEVPPDDPPICVSDDNRLCTLASLKAVWHGQKLDFFKQAHEGGPAPNSEVVLPDGFQSQHILDYAQGNRPLVLNFGSCTCPPFMARMSAFQRLVTKYQRDVDFLIIYIEEAHPSDGWVTTDSPYIIPQHRSLEDRVSAARVLQQGAPGCALVLDTMANSSSSAYGAYFERLYVIQSGTIMYQGGRGPDGYQVSELRTWLERYDEQLHGARPRRV
  Kd: 2110 nM

From article PMC8517284 (EBioMedicine, 2021)
